In US7811578B2, “Soluble chimeric peptide inhibitors of HIV entry comprising an IZ trimeric coiled-coil peptide and HIV gp41 N-helix coiled-coil peptide” (Whitehead Institute for Biomedical Research, dated 2010):

Tests used:
[1] = biological target: HIV gp41 on HIV modified to contain a luciferase reporter gene (HIV, strain not stated)
[2] = biological target: gp160 (precursor protein to gp120/gp41) on CHO cells (HIV, strain not stated)
[3] = biological target: HIV-1 HXB2 gp41 (from the HXB2 gp160 gene), on single-round luciferase virus (HIV-1 (HXB2)) (UniProt P04578)
[4] = biological target: HIV-1 HXB2 gp41 (from the HXB2 gp160 gene), on single-round luciferase virus (HIV-1 (HXB2), UniProt P04578); assay: cell-based or functional assay

Molecule	IC50 (nm), viral infectivity (HIV luciferase assay) [4]	further results
GCN4-pIQI (peptide)		inhibition of luciferase activity (viral fusion experiment) [1]: > 10 µM
IQN17 (designed binder)		IC50, inhibition of luciferase activity (viral fusion experiment) [1]: 250 nM; IC50, inhibition of syncytia formation (cell/cell fusion, β-galactosidase) [2]: 20 to 80 nM
IQN17 (G572D) (designed binder)		IC50 (nm), viral infectivity (HIV luciferase assay) [3]: 20000 nM
Ac-KIKKIENEIARIKKLLQLTVWGIKQLQARIL-NH2 (designed binder) [II15N17]	~3000 nM	
Ac-RMKQIEDKIEEIESKQKKIENEIARIKKLLQLTVWGIKQLQARIL-NH2 (designed binder) [IQN17]	~180 nM	
Ac-KIEEIESKIKKIENEIARIKKLLQLTVWGIKQLQARIL-NH2 (designed binder) [II22N17]	~170 nM	
Ac-KQKKIENEIARIKKLLQLTVWGIKQLQARIL-NH2 (designed binder) [IQ15N17]	~10000 nM	
Ac-KIEEIESKQKKIENEIARIKKLLQLTVWGIKQLQARIL-NH2 (designed binder) [IQ22N17]	~1000 nM	
Ac-IKKEIEAIKKEQEAIKKKIEAIEKLLQLTVWGIKQLQARIL-NH2 (designed binder) [IZN17]	5.6 nM	
IQN23 version 2 (designed binder) Ac-RMKQIEDKIEEIESKQKKIENEIARIKKLIEAQQHLLQLTVWGIKQLQARIL-NH2	~30 nM	
Ac-LLQLTVWGIKQLQARIL-NH2 [N17]	~10000 nM	
